From patent publication US20140235820A1, “METHODS AND COMPOSITIONS FOR MODULATING THE Wnt PATHWAY” (Genentech, Inc., priority 2010, published 2014)
“Also recorded” adds a separate entry of the source. Positions of bridges follow the written chain, without caps; N, C: chain ends.

T1: sclerostin binding to LRP6 E1E2 (Homo sapiens, UniProt O75581)
T1 construct: construct E1E2-amino acids A20-E631 of LPR6; made in house; host or cells: Tni insect cells (baculovirus, secreted)
T1 sequence (O75581 20-631): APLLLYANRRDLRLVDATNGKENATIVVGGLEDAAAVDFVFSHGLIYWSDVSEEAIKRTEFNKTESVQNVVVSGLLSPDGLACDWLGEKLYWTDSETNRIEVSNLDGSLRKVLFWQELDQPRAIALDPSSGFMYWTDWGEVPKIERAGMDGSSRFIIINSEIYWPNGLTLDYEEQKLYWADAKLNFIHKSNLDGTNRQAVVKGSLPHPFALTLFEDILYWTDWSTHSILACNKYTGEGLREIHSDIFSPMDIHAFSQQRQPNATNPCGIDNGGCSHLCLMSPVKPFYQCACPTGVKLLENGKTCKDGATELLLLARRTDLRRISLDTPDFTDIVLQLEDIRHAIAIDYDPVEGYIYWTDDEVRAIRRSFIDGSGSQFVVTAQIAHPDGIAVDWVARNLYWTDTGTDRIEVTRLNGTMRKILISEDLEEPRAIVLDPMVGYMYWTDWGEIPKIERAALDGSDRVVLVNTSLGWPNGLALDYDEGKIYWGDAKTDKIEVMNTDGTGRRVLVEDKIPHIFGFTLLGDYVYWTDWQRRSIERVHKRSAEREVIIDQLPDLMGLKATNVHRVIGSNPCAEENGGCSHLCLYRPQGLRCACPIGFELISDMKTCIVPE

T2: Dkk1 binding to LRP6 E1E2 (Homo sapiens, UniProt O75581)
T2 construct: construct E1E2-amino acids A20-E631 of LPR6; made in house; host or cells: Tni insect cells (baculovirus, secreted)
T2 sequence (O75581 20-631): T1 sequence (O75581 20-631)

T3: LRP6 E3E4 (Homo sapiens, UniProt O75581)
T3 construct: construct E3E4 amino acids E631-Q1253 of LPR6; made in house; host or cells: Tni insect cells (baculovirus, secreted)
T3 sequence (O75581 631-1253): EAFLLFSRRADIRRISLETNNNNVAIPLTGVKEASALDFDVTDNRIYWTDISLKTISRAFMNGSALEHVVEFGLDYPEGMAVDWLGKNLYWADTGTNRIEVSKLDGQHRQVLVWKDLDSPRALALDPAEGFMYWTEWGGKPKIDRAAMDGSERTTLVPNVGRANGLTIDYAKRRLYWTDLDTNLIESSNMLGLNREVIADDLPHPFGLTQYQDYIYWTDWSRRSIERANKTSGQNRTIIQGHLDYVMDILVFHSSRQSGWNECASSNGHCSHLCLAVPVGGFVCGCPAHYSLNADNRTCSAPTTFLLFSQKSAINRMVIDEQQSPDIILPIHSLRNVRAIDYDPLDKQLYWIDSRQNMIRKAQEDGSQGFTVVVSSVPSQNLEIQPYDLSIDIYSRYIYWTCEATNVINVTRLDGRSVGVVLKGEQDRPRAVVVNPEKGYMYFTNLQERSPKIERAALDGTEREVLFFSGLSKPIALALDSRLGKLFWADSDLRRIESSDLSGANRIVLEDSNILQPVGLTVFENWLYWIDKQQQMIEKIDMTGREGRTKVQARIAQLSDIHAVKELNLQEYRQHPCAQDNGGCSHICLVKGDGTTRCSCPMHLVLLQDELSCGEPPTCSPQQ

T4: LRP6 E1E4 (Homo sapiens, UniProt O75581)
T4 construct: construct E1E4-amino acids A20-Q1253 of LPR6; made in house; host or cells: Tni insect cells (baculovirus, secreted)
T4 sequence (O75581 20-1253): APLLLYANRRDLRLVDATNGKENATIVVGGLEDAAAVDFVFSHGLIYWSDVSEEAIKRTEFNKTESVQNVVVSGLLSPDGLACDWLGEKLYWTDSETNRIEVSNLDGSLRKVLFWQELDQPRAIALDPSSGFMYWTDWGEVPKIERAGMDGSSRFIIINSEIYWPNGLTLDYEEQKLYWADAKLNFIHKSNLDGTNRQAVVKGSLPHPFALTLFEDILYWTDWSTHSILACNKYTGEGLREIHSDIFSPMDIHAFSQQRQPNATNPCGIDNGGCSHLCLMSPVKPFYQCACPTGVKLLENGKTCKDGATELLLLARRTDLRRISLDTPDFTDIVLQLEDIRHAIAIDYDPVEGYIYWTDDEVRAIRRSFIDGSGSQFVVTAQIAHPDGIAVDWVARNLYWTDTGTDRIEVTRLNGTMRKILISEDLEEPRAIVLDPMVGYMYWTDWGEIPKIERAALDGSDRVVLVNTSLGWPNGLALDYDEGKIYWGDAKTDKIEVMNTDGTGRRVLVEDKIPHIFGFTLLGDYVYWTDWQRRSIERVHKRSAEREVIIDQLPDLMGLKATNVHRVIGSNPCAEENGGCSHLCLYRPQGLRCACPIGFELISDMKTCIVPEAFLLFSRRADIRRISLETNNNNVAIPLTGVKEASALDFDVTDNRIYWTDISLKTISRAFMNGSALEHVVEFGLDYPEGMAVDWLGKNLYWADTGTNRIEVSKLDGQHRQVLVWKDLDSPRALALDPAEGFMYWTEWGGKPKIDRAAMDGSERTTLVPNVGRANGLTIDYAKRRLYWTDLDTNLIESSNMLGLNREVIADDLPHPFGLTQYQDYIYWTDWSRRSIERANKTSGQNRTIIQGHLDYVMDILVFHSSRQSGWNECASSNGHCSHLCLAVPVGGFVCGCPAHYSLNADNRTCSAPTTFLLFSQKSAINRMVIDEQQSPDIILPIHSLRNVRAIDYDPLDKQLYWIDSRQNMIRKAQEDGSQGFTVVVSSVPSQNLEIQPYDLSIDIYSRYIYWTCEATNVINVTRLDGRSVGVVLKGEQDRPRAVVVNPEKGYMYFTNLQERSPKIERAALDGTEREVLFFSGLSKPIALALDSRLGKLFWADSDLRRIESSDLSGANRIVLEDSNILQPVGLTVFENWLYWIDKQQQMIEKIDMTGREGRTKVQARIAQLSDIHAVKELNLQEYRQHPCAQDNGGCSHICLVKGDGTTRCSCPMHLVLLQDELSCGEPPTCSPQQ

T5: human LRP6 construct E1E2 (amino acids A20-E631) (human, UniProt O75581 20-631, biotinylated for biolayer interferometry)
T5 construct: range 20-631; also called LRP6 E1E2
T5 sequence (looked up): T1 sequence (O75581 20-631)

T6: human LRP6 construct E1E4 (amino acids A20-Q1253) (human, UniProt O75581 20-1253, biotinylated for biolayer interferometry)
T6 construct: range 20-1253; Expressed in Tni insect cells; tags not specified for this construct; also called LRP6 E1E4
T6 sequence (looked up): T4 sequence (O75581 20-1253)

T7: human LRP6 construct E3E4 (amino acids E631-Q1253) (human, UniProt O75581 631-1253, biotinylated for biolayer interferometry)
T7 construct: range 631-1253; also called LRP6 E3E4
T7 sequence (looked up): T3 sequence (O75581 631-1253)

B1: Dkk1 H204E (ligand, human, UniProt O94907 32-266, looked up)
chain: TLNSVLNSNAIKNLPPPLGGAAGHPGSAVSAAPGILYPGGNKYQTIDNYQPYPCAEDEECGTDEYCASPTRGGDAGVQICLACRKRRKRCMRHAMCCPGNYCKNGICVSSDQNHFRGEIEETITESFGNDHSTLDGYSRRTTLSSKMYHTKGQEGSVCLRSSDCASGLCCAREFWSKICKPVLKEGQVCTKHRRKGSHGLEIFQRCYCGEGLSCRIQKDHHQASNSSRLHTCQRH
B2: Dkk2 (ligand)
chain: KLNSIKSSLGGETPAQSANRSAGMNQGLAFGGSKKGKSLGQAYPCSSDKECEVGRYCHSPHQGSSACMLCRRKKKRCHRDGMCCPGTRCNNGICIPVTESILTPHIPALDGTRHRDRNHGHYSNHDLGWQNLGRPHSKMPHIKGHEGDPCLRSSDCIDGFCCARHFWTKICKPVLHQGEVCTKQRKKGSHGLEIFQRCDCAKGLSCKVWKDATYSSKARLHVCQKI

Columns and labels:
[1] = molecular target: T1, sclerostin binding to LRP6 E1E2; assay: Peptide inhibition of sclerostin binding to LRP6 E1E2 (biolayer interferometry); settings: peptide 20-fold higher than IC50; ligand three-fold higher than dissociation constant
Procedure: (§1) FIG. 22. […] Binding was assessed by biolayer interferometry, as described in Example 1. Immobilized LRP6 E1E2 was exposed to protein ligand (Wnt 9b, Dkk1, or sclerostin) present in solution at a concentration three-fold higher than the measured dissociation constant for E1E2. Competing peptides were added at a saturating level (20-fold higher than the measured IC50 value). Peptide A: Ac-NSNAIKN-am; Peptide B: Ac-[…]-am (disulfide); Peptide C: Ac-[…]-am (disulfide)
(§2) Binding kinetics were measured by biolayer interferometry using an Octet Red instrument (ForteBio) as previously described (11). Streptavidin (SA) biosensors were loaded with biotinylated hLRP6 in 50 mMTris, pH 8, 300 mM NaCl, 5% (v/v) glycerol, and 0.05% (w/v) Triton X-100. The loaded biosensors were washed in the same buffer before carrying out association and dissociation measurements for the indicated times. The Kd of each interaction was determined using steady state-analysis through the Octet Red software v6.3. Each reported value represents an average of three or more experiments at different concentrations, with a fitted experimental curve for which the square of the correlation coefficient (R^2) is above 0.96.
(§3) To support the conclusions from protein mutagenesis, peptides were assayed for inhibitory activity toward binding of various ligands to LRP6. Three different peptides inhibited binding of the inhibitors Dkk1 and sclerostin to LRP6 E1E2 without affecting the binding of Wnt9B (FIG. 22).

[2] = molecular target: T2, Dkk1 binding to LRP6 E1E2; assay: Peptide inhibition of Dkk1 binding to LRP6 E1E2 (biolayer interferometry); settings: peptide 20-fold higher than IC50; ligand three-fold higher than dissociation constant
Procedure: as §1, §2, §3

LRP6 E3E4 = molecular target: T3, LRP6 E3E4; assay: Biolayer interferometry binding to LRP6 E3E4
Procedure: as §2
(§4) The interaction of the different Dkks and sclerostin with various domains of LRP6 was measured using a biolayer interferometry assay (11). Purified receptors contained individual β-propeller-EGF-like units (E1, E2, or E4), two β-propellers (E1E2 or E3E4), or four β-propellers (E1E4))—as follows:
(§5) Human LRP6: construct E1E4-amino acids A20-Q1253 of LPR6; construct E1E2-amino acids A20-E631 of LPR6; construct E3E4 amino acids E631-Q1253 of LPR6; construct E1-amino acids A20-D325 of LPR6; construct E2-amino acids […]-E631 of LPR6; construct E4-T933-Q1253. The individual LRP6 β-propeller E3 could not be expressed.

LRP6 E1E4 = molecular target: T4, LRP6 E1E4; assay: Biolayer interferometry binding to LRP6 E1E4
Procedure: as §2, §4, §5

[3] = molecular target: T5, human LRP6 construct E1E2 (amino acids …); assay: BLI (FIG. 9B)
Procedure: as §2, with “(R²)” for “(R^2)”

[4] = molecular target: T6, human LRP6 construct E1E4 (amino acids …); assay: BLI (FIG. 9B)
Procedure: as §2, with “(R²)” for “(R^2)”

[5] = molecular target: T5, human LRP6 construct E1E2 (amino acids …); assay: BLI (Octet Red), biotinylated LRP6 on streptavidin tips, steady state
Procedure: as §2, with “(R²)” for “(R^2)”

[6] = molecular target: T7, human LRP6 construct E3E4 (amino acids …); assay: as above
Procedure: as §2, with “(R²)” for “(R^2)”

Row | Molecule | inhibition of sclerostin binding to LRP6 E1E2 [1] | inhibition of Dkk1 binding to LRP6 E1E2 [2] | also measured
1 | Ac-CNSIKFCG-am (disulfide) (Ac-CNSIKFCG-NH2; disulfide 1-7 (inferred)) [Peptide B] | inhibit binding | inhibit binding | 
2 | Ac-NSNAIKN-am (Ac-NSNAIKN-NH2) [Peptide A] | inhibit binding | inhibit binding | 
3 | Ac-GSLCSNRIKPDTHCSS-am (disulfide) (Ac-GSLCSNRIKPDTHCSS-NH2; disulfide 4-14 (inferred)) [Peptide C] | inhibit binding | inhibit binding | 
4 | B1 |  |  | binding to LRP6 E3E4 (in words) (LRP6 E3E4): interfered with binding; also recorded: affect binding; binding to LRP6 E1E4 (in words) (LRP6 E1E4): retain binding; binding result [3]: binds; binding result [4]: binds
5 | B2 |  |  | Kd [5]: 0.053 µM; Kd [6]: 0.038 µM
